Assay results from publication PMC7335425 (Cell, 2020).

B1: LetB three-ring truncation mutant (rings 2, 3, 4 and 5 removed), TM helix deleted (domain or fragment)
chain: QDRGNTVTIDFMSADGIVPGRTPVRYQGVEVGTVQDISLSDDLRKIEVKVSIKSDMKDALREETQFWLVTPKASLAGVSGLDALVGGNYIGMMPGKGKEQDHFVALDTQPKYRLDNGGGQITLHAFDAGKLAVGMPIRYLGIDIGQIQTLDLITARNEVQAKAVLYPEYVQTFARGGTRFSVVTPQISAAGVEHLDTILQPYINVEPGRGNPRRDFELQEATITDSRYLDGLSIIVEAPEAGSLGIGTPVLFRGLEVGTVTGMTLGTLSDRVMIAMRISKRYQHLVRNNSVFWLASGYSLDFGLTGGVVKTGTFNQFIRGGIAFATPPGTPLAPKAQEGKHFLLQESEPKEWREWGTALPK
B2: LetB two-ring truncation mutant, TM helix deleted (domain or fragment)
chain: QDRGNTVTIDFMSADGIVPGRTPVRYQGVEVGTVQDISLSDDLRKIEVKVSIKSDMKDALREETQFWLVTPKASLAGVSGLDALVGGNYIGMMPGKGKEQDHFVALDTQPKYRLDNGDGLSIIVEAPEAGSLGIGTPVLFRGLEVGTVTGMTLGTLSDRVMIAMRISKRYQHLVRNNSVFWLASGYSLDFGLTGGVVKTGTFNQFIRGGIAFATPPGTPLAPKAQEGKHFLLQESEPKEWREWGTALPK
B3: LetB four-ring mutant 1–3-4–7, TM helix deleted (domain or fragment)
chain: QDRGNTVTIDFMSADGIVPGRTPVRYQGVEVGTVQDISLSDDLRKIEVKVSIKSDMKDALREETQFWLVTPKASLAGVSGLDALVGGNYIGMMPGKGKEQDHFVALDTQPKYRLDNGRGVIIKLELPSGAGLTADSTPLMYQGLEVGQLTKLDLNPGGKVTGEMTVDPSVVTLLRENTRIELRNPKLSLSDANLSALLTGKTFELVPGDGEPRKEFVVVPGEKALLHEPDVLTLTLTAPESYGIDAGQPLILHGVQVGQVIDRKLTSKGVTFTVAIEPQHRELVKGDSKFVVNSRVDVKVGLDGVEFLGASASEWINGGIRILPGDKGEMKASYPLYANLEKALENSLSDLPTDGLSIIVEAPEAGSLGIGTPVLFRGLEVGTVTGMTLGTLSDRVMIAMRISKRYQHLVRNNSVFWLASGYSLDFGLTGGVVKTGTFNQFIRGGIAFATPPGTPLAPKAQEGKHFLLQESEPKEWREWGTALPK
B4: LetB L243N, TM helix deleted (domain or fragment, E. coli, UniProt P76272 43-877, looked up)
chain: QDRGNTVTIDFMSADGIVPGRTPVRYQGVEVGTVQDISLSDDLRKIEVKVSIKSDMKDALREETQFWLVTPKASLAGVSGLDALVGGNYIGMMPGKGKEQDHFVALDTQPKYRLDNGDLMIHLQAPDLGSLNSGSLVYFRKIPVGKVYDYAINPNKQGVVIDVLIERRFTDLVKKGSRFWNVSGVDANVSISGAKVKLESNAALVNGAIAFDSPEESKPAEAEDTFGLYEDLAHSQRGVIIKLELPSGAGLTADSTPLMYQGLEVGQLTKLDLNPGGKVTGEMTVDPSVVTLLRENTRIELRNPKLSLSDANLSALLTGKTFELVPGDGEPRKEFVVVPGEKALLHEPDVLTLTLTAPESYGIDAGQPLILHGVQVGQVIDRKLTSKGVTFTVAIEPQHRELVKGDSKFVVNSRVDVKVGLDGVEFLGASASEWINGGIRILPGDKGEMKASYPLYANLEKALENSLSDLPTTTVSLSAETLPDVQAGSVVLYRKFEVGEVITVRPRANAFDIDLHIKPEYRNLLTSNSVFWAEGGAKVQLNGSGLTVQASPLSRALKGAISFDNLSGASASQRKGDKRILYASETAARAVGGQITLHAFDAGKLAVGMPIRYLGIDIGQIQTLDLITARNEVQAKAVLYPEYVQTFARGGTRFSVVTPQISAAGVEHLDTILQPYINVEPGRGNPRRDFELQEATITDSRYLDGLSIIVEAPEAGSLGIGTPVLFRGLEVGTVTGMTLGTLSDRVMIAMRISKRYQHLVRNNSVFWLASGYSLDFGLTGGVVKTGTFNQFIRGGIAFATPPGTPLAPKAQEGKHFLLQESEPKEWREWGTALPK
B5: LetB L246N, TM helix deleted (domain or fragment, E. coli, UniProt P76272 43-877, looked up)
chain: QDRGNTVTIDFMSADGIVPGRTPVRYQGVEVGTVQDISLSDDLRKIEVKVSIKSDMKDALREETQFWLVTPKASLAGVSGLDALVGGNYIGMMPGKGKEQDHFVALDTQPKYRLDNGDLMIHLQAPDLGSLNSGSLVYFRKIPVGKVYDYAINPNKQGVVIDVLIERRFTDLVKKGSRFWNVSGVDANVSISGAKVKLESLAANVNGAIAFDSPEESKPAEAEDTFGLYEDLAHSQRGVIIKLELPSGAGLTADSTPLMYQGLEVGQLTKLDLNPGGKVTGEMTVDPSVVTLLRENTRIELRNPKLSLSDANLSALLTGKTFELVPGDGEPRKEFVVVPGEKALLHEPDVLTLTLTAPESYGIDAGQPLILHGVQVGQVIDRKLTSKGVTFTVAIEPQHRELVKGDSKFVVNSRVDVKVGLDGVEFLGASASEWINGGIRILPGDKGEMKASYPLYANLEKALENSLSDLPTTTVSLSAETLPDVQAGSVVLYRKFEVGEVITVRPRANAFDIDLHIKPEYRNLLTSNSVFWAEGGAKVQLNGSGLTVQASPLSRALKGAISFDNLSGASASQRKGDKRILYASETAARAVGGQITLHAFDAGKLAVGMPIRYLGIDIGQIQTLDLITARNEVQAKAVLYPEYVQTFARGGTRFSVVTPQISAAGVEHLDTILQPYINVEPGRGNPRRDFELQEATITDSRYLDGLSIIVEAPEAGSLGIGTPVLFRGLEVGTVTGMTLGTLSDRVMIAMRISKRYQHLVRNNSVFWLASGYSLDFGLTGGVVKTGTFNQFIRGGIAFATPPGTPLAPKAQEGKHFLLQESEPKEWREWGTALPK
B6: LetB V247N, TM helix deleted (domain or fragment, E. coli, UniProt P76272 43-877, looked up)
chain: QDRGNTVTIDFMSADGIVPGRTPVRYQGVEVGTVQDISLSDDLRKIEVKVSIKSDMKDALREETQFWLVTPKASLAGVSGLDALVGGNYIGMMPGKGKEQDHFVALDTQPKYRLDNGDLMIHLQAPDLGSLNSGSLVYFRKIPVGKVYDYAINPNKQGVVIDVLIERRFTDLVKKGSRFWNVSGVDANVSISGAKVKLESLAALNNGAIAFDSPEESKPAEAEDTFGLYEDLAHSQRGVIIKLELPSGAGLTADSTPLMYQGLEVGQLTKLDLNPGGKVTGEMTVDPSVVTLLRENTRIELRNPKLSLSDANLSALLTGKTFELVPGDGEPRKEFVVVPGEKALLHEPDVLTLTLTAPESYGIDAGQPLILHGVQVGQVIDRKLTSKGVTFTVAIEPQHRELVKGDSKFVVNSRVDVKVGLDGVEFLGASASEWINGGIRILPGDKGEMKASYPLYANLEKALENSLSDLPTTTVSLSAETLPDVQAGSVVLYRKFEVGEVITVRPRANAFDIDLHIKPEYRNLLTSNSVFWAEGGAKVQLNGSGLTVQASPLSRALKGAISFDNLSGASASQRKGDKRILYASETAARAVGGQITLHAFDAGKLAVGMPIRYLGIDIGQIQTLDLITARNEVQAKAVLYPEYVQTFARGGTRFSVVTPQISAAGVEHLDTILQPYINVEPGRGNPRRDFELQEATITDSRYLDGLSIIVEAPEAGSLGIGTPVLFRGLEVGTVTGMTLGTLSDRVMIAMRISKRYQHLVRNNSVFWLASGYSLDFGLTGGVVKTGTFNQFIRGGIAFATPPGTPLAPKAQEGKHFLLQESEPKEWREWGTALPK
B7: LetB L355N, TM helix deleted (domain or fragment, E. coli, UniProt P76272 43-877, looked up)
chain: QDRGNTVTIDFMSADGIVPGRTPVRYQGVEVGTVQDISLSDDLRKIEVKVSIKSDMKDALREETQFWLVTPKASLAGVSGLDALVGGNYIGMMPGKGKEQDHFVALDTQPKYRLDNGDLMIHLQAPDLGSLNSGSLVYFRKIPVGKVYDYAINPNKQGVVIDVLIERRFTDLVKKGSRFWNVSGVDANVSISGAKVKLESLAALVNGAIAFDSPEESKPAEAEDTFGLYEDLAHSQRGVIIKLELPSGAGLTADSTPLMYQGLEVGQLTKLDLNPGGKVTGEMTVDPSVVTLLRENTRIELRNPKLSLSDANNSALLTGKTFELVPGDGEPRKEFVVVPGEKALLHEPDVLTLTLTAPESYGIDAGQPLILHGVQVGQVIDRKLTSKGVTFTVAIEPQHRELVKGDSKFVVNSRVDVKVGLDGVEFLGASASEWINGGIRILPGDKGEMKASYPLYANLEKALENSLSDLPTTTVSLSAETLPDVQAGSVVLYRKFEVGEVITVRPRANAFDIDLHIKPEYRNLLTSNSVFWAEGGAKVQLNGSGLTVQASPLSRALKGAISFDNLSGASASQRKGDKRILYASETAARAVGGQITLHAFDAGKLAVGMPIRYLGIDIGQIQTLDLITARNEVQAKAVLYPEYVQTFARGGTRFSVVTPQISAAGVEHLDTILQPYINVEPGRGNPRRDFELQEATITDSRYLDGLSIIVEAPEAGSLGIGTPVLFRGLEVGTVTGMTLGTLSDRVMIAMRISKRYQHLVRNNSVFWLASGYSLDFGLTGGVVKTGTFNQFIRGGIAFATPPGTPLAPKAQEGKHFLLQESEPKEWREWGTALPK
B8: LetB L358N, TM helix deleted (domain or fragment, E. coli, UniProt P76272 43-877, looked up)
chain: QDRGNTVTIDFMSADGIVPGRTPVRYQGVEVGTVQDISLSDDLRKIEVKVSIKSDMKDALREETQFWLVTPKASLAGVSGLDALVGGNYIGMMPGKGKEQDHFVALDTQPKYRLDNGDLMIHLQAPDLGSLNSGSLVYFRKIPVGKVYDYAINPNKQGVVIDVLIERRFTDLVKKGSRFWNVSGVDANVSISGAKVKLESLAALVNGAIAFDSPEESKPAEAEDTFGLYEDLAHSQRGVIIKLELPSGAGLTADSTPLMYQGLEVGQLTKLDLNPGGKVTGEMTVDPSVVTLLRENTRIELRNPKLSLSDANLSANLTGKTFELVPGDGEPRKEFVVVPGEKALLHEPDVLTLTLTAPESYGIDAGQPLILHGVQVGQVIDRKLTSKGVTFTVAIEPQHRELVKGDSKFVVNSRVDVKVGLDGVEFLGASASEWINGGIRILPGDKGEMKASYPLYANLEKALENSLSDLPTTTVSLSAETLPDVQAGSVVLYRKFEVGEVITVRPRANAFDIDLHIKPEYRNLLTSNSVFWAEGGAKVQLNGSGLTVQASPLSRALKGAISFDNLSGASASQRKGDKRILYASETAARAVGGQITLHAFDAGKLAVGMPIRYLGIDIGQIQTLDLITARNEVQAKAVLYPEYVQTFARGGTRFSVVTPQISAAGVEHLDTILQPYINVEPGRGNPRRDFELQEATITDSRYLDGLSIIVEAPEAGSLGIGTPVLFRGLEVGTVTGMTLGTLSDRVMIAMRISKRYQHLVRNNSVFWLASGYSLDFGLTGGVVKTGTFNQFIRGGIAFATPPGTPLAPKAQEGKHFLLQESEPKEWREWGTALPK
B9: LetB L359N, TM helix deleted (domain or fragment, E. coli, UniProt P76272 43-877, looked up)
chain: QDRGNTVTIDFMSADGIVPGRTPVRYQGVEVGTVQDISLSDDLRKIEVKVSIKSDMKDALREETQFWLVTPKASLAGVSGLDALVGGNYIGMMPGKGKEQDHFVALDTQPKYRLDNGDLMIHLQAPDLGSLNSGSLVYFRKIPVGKVYDYAINPNKQGVVIDVLIERRFTDLVKKGSRFWNVSGVDANVSISGAKVKLESLAALVNGAIAFDSPEESKPAEAEDTFGLYEDLAHSQRGVIIKLELPSGAGLTADSTPLMYQGLEVGQLTKLDLNPGGKVTGEMTVDPSVVTLLRENTRIELRNPKLSLSDANLSALNTGKTFELVPGDGEPRKEFVVVPGEKALLHEPDVLTLTLTAPESYGIDAGQPLILHGVQVGQVIDRKLTSKGVTFTVAIEPQHRELVKGDSKFVVNSRVDVKVGLDGVEFLGASASEWINGGIRILPGDKGEMKASYPLYANLEKALENSLSDLPTTTVSLSAETLPDVQAGSVVLYRKFEVGEVITVRPRANAFDIDLHIKPEYRNLLTSNSVFWAEGGAKVQLNGSGLTVQASPLSRALKGAISFDNLSGASASQRKGDKRILYASETAARAVGGQITLHAFDAGKLAVGMPIRYLGIDIGQIQTLDLITARNEVQAKAVLYPEYVQTFARGGTRFSVVTPQISAAGVEHLDTILQPYINVEPGRGNPRRDFELQEATITDSRYLDGLSIIVEAPEAGSLGIGTPVLFRGLEVGTVTGMTLGTLSDRVMIAMRISKRYQHLVRNNSVFWLASGYSLDFGLTGGVVKTGTFNQFIRGGIAFATPPGTPLAPKAQEGKHFLLQESEPKEWREWGTALPK

Molecular target: the molecule itself
Assay: negative stain EM

Protein | stoichiometry N
B1 | 6
B2 | 6
B3 | 6
B4 | 6
B5 | 6
B6 | 6
B7 | 6
B8 | 6
B9 | 6
